Key:
[1] = molecular target: T1, cynomolgus monkey CD96v2 expressed on cells (CHO cells; transiently transfected HEK cells) (cynomolgus monkey, UniProt A0A2K5TWV6 22-569); test: flow cytometry on CHO cells expressing cynomolgus CD96v2
T1 construct: the cell is named under assay; also called CHO-cyCD96; Cyno CD96v2
T1 sequence: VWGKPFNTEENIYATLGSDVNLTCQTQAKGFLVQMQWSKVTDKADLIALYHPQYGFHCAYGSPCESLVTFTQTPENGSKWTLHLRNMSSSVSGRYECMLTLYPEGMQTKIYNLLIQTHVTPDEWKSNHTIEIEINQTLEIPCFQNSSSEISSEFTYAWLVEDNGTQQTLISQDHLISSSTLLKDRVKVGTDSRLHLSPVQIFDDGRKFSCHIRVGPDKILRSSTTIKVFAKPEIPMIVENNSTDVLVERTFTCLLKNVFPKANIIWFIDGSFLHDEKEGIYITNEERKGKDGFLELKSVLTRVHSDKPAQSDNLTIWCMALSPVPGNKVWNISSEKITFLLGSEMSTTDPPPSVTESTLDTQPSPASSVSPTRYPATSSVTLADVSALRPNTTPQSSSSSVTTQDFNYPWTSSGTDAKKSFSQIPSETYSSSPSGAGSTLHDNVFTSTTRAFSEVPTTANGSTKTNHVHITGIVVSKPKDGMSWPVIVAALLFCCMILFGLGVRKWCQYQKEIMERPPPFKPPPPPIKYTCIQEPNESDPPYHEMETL

[2] = molecular target: T1, cynomolgus monkey CD96v2 expressed on …; test: flow cytometry on transiently transfected HEK cells (Cyno CD96v2)
[3] = molecular target: T2, human CD96v2 expressed on cells (CHO cells; transiently transfected HEK cells) (human, UniProt P40200-2 22-569); test: flow cytometry on transiently transfected HEK cells; geometric mean, n = 3
T2 construct: whole, on cells; the cell is named under assay; also called CHO-huCD96; hCD96v2
T2 sequence (looked up): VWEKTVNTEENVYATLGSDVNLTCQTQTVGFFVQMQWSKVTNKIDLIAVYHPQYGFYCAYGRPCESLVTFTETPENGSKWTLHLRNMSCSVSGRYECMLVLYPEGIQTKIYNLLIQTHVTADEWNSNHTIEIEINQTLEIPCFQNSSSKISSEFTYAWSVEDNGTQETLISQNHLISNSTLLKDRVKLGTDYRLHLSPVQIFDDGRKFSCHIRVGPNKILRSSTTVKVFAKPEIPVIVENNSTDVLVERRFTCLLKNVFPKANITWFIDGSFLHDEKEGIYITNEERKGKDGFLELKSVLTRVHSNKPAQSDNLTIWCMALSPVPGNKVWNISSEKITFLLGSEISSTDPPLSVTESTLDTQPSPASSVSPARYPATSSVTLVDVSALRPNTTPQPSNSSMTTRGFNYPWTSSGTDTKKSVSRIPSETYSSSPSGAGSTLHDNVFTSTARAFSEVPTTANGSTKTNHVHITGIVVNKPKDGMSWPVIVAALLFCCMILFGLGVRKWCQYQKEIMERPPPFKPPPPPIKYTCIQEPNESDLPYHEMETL

[4] = molecular target: T1, cynomolgus monkey CD96v2 expressed on …; test: as above
[5] = molecular target: T3, human CD96v1 on transiently transfected HEK cells (human, UniProt P40200 22-585); test: as above
T3 construct: whole, on cells
T3 sequence (looked up): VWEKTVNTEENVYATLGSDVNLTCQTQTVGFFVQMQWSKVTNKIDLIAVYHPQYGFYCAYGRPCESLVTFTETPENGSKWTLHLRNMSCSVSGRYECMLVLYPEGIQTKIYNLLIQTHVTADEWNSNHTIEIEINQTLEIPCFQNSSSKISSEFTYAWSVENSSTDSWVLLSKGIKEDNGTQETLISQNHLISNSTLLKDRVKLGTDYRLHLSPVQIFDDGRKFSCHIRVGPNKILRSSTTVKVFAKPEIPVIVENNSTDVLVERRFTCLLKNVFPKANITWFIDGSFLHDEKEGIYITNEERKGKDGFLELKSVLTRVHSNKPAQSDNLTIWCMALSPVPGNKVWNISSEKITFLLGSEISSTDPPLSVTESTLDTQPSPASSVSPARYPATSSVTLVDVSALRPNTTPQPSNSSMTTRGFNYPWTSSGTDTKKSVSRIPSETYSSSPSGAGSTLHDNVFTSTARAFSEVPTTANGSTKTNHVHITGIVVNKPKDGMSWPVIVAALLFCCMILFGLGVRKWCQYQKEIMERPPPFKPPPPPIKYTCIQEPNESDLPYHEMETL

[6] = molecular target: T4, cynomolgus monkey CD96v1 on transiently transfected HEK cells (cynomolgus monkey); test: as above
T4 construct: whole, on cells; also called Cyno CD96v1

[7] = molecular target: T5, blood derived cynomolgus monkey CD96v2 on transiently transfected HEK cells (cynomolgus monkey); test: as above
T5 construct: also called Blood derived Cyno CD96v2

[8] = molecular target: T5, blood derived cynomolgus monkey CD96v2 …; test: flow cytometry on transiently transfected HEK cells (Cyno blood derived CD96v2)
[9] = molecular target: T6, recombinant cynomolgus monkey CD96v2 (cynomolgus monkey, UniProt A0A2K5TWV6 22-487, biotinylated (site not stated)); test: MSD-SET solution equilibrium titration, antibody titrated against constant biotinylated CD96, free antigen detected
T6 construct: Soluble recombinant protein used in MSD-SET; also called cynomolgus monkey biotinylated CD96 protein
T6 sequence: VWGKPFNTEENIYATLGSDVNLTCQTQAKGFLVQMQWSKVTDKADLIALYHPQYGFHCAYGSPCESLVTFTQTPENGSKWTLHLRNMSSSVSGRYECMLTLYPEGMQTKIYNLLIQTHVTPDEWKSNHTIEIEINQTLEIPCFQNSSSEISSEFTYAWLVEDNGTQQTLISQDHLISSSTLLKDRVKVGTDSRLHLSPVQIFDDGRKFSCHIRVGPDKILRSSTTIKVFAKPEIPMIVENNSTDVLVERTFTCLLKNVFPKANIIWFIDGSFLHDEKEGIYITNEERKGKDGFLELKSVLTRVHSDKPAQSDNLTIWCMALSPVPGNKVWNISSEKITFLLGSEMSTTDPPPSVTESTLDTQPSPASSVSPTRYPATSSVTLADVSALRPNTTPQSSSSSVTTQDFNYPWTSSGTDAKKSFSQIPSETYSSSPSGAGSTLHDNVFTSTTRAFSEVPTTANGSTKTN

EC50 [1]: 0.02 nM
EC50 (read off the curve) [2]: ~6 nM
EC50 [3]: 6.44 nM
EC50 [4]: 7.88 nM
EC50 [5]: 5.28 nM
EC50 [6]: 9.17 nM
EC50 [7]: 7.34 nM
EC50 (read off the curve) [8]: ~5 nM
IC50 (read off the curve) [9]: ~0.4 nM
B1: 42Y073-86F08-66 (antibody)
heavy: not shown
light: DIQLTQSPSSLSASVGDRVTITCRASQSISSYLNWYQQKPGKAPKLLIYAASSLQSGVPSRFSGSGSGTDFTLTISSLQPEDFATYYCQQVLHTITFGGGTKVEIKRTVAAPSVFIFPPSDEQLKSGTASVVCLLNNFYPREAKVQWKVDNALQSGNSQESVTEQDSKDSTYSLSSTLTLSKADYEKHKVYACEVTHQGLSSPVTKSFNRGEC
notes: also called GSK 6097608; GSK6097608
